Measured values as given in article PMC7300015.

Tests used:
[1] = target: HKU2 spike glycoprotein ectodomain (residues 1-1066) (Rhinolophus bat coronavirus HKU2); experiment: cryo-EM structure
[2] = target: SADS-CoV spike glycoprotein ectodomain (residues 1-1068) (swine acute diarrhea syndrome coronavirus (SADS-CoV)); experiment: cryo-EM structure

Substance | stoichiometry N [1] | stoichiometry N [2]
HKU2 spike glycoprotein ectodomain (residues 1-1066) (domain or fragment) | 3 | 
SADS-CoV spike glycoprotein ectodomain (residues 1-1068) (domain or fragment) |  | 3
